In patent publication EP4685489A2 (Roche Diagnostics GmbH, dated 2026):

Columns and labels:
[1] = biological target: T1, recombinant N-terminal fragment (residues 1-330) of human cardiac-type Myosin-binding protein C3 with … (human, UniProt Q14896 1-330); test: sandwich ELISA, streptavidin MTP; row antibody biotinylated (capture), second antibody DIG-labelled 4.6.6 (detection); 1 ng/mL MYBPC3
T1 construct: expressed in HEK293-F cells and purified as a monomer; also called MYBPC3; N-terminal MyBPC-Fragment (1-330)
T1 sequence (Q14896 other isoform, or with tags, fused parts or gaps limits assumed): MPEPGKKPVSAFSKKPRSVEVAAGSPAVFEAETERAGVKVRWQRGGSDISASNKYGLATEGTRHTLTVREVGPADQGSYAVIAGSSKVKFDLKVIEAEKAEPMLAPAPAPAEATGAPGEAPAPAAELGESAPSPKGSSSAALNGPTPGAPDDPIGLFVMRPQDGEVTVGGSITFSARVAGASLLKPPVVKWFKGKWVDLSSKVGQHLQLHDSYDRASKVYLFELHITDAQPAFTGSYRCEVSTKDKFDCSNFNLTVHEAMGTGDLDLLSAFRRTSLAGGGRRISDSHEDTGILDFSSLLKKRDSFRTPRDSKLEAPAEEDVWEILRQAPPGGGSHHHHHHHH

[2] = biological target: T1, recombinant N-terminal fragment …; test: Elecsys ECLIA sandwich; row antibody biotinylated (capture), second antibody ruthenylated 8H1 (detection); 2.7 pg/mL MYBPC3
[3] = biological target: T1, recombinant N-terminal fragment …; test: Elecsys ECLIA sandwich; row antibody biotinylated (capture), second antibody ruthenylated 25H1 (detection); 2.7 pg/mL MYBPC3
[4] = biological target: T1, recombinant N-terminal fragment …; test: Elecsys ECLIA sandwich; row antibody biotinylated (capture), second antibody ruthenylated 5B8 (detection); 0.9 pg/mL MYBPC3
[5] = biological target: T1, recombinant N-terminal fragment …; test: Elecsys ECLIA sandwich; row antibody biotinylated (capture), second antibody ruthenylated 11F2 (detection); 2.7 pg/mL MYBPC3
[6] = biological target: T1, recombinant N-terminal fragment …; test: Elecsys ECLIA sandwich; row antibody biotinylated (capture), second antibody ruthenylated 7B5 (detection); 2.7 pg/mL MYBPC3
[7] = biological target: T1, recombinant N-terminal fragment …; test: sandwich ELISA, streptavidin MTP; row antibody biotinylated (capture), second antibody DIG-labelled 7B5 (detection); 2.7 pg/mL MYBPC3
[8] = biological target: T1, recombinant N-terminal fragment …; test: Elecsys ECLIA sandwich; row antibody biotinylated (capture), second antibody ruthenylated 7B5 (detection); 0.9 pg/mL MYBPC3
[9] = biological target: T1, recombinant N-terminal fragment …; test: Elecsys ECLIA sandwich; row antibody biotinylated (capture), second antibody ruthenylated 7D5 (detection); 0.9 pg/mL MYBPC3
[10] = biological target: T1, recombinant N-terminal fragment …; test: sandwich ELISA, streptavidin MTP; row antibody biotinylated (capture), second antibody DIG-labelled 5B8 (detection); 2.7 pg/mL MYBPC3
[11] = biological target: T1, recombinant N-terminal fragment …; test: Elecsys ECLIA sandwich; row antibody biotinylated (capture), second antibody ruthenylated 13F11 (detection); 2.7 pg/mL MYBPC3
[12] = biological target: T1, recombinant N-terminal fragment …; test: Elecsys ECLIA sandwich; row antibody biotinylated (capture), second antibody ruthenylated 8H1 (detection); 0.9 pg/mL MYBPC3
[13] = biological target: T1, recombinant N-terminal fragment …; test: sandwich ELISA, streptavidin MTP; row antibody biotinylated (capture), second antibody DIG-labelled 4.1.1 (detection); 1 ng/mL MYBPC3
[14] = biological target: T1, recombinant N-terminal fragment …; test: Elecsys ECLIA sandwich; row antibody biotinylated (capture), second antibody ruthenylated 13F11 (detection); 0.9 pg/mL MYBPC3
[15] = biological target: T1, recombinant N-terminal fragment …; test: Elecsys ECLIA sandwich; row antibody biotinylated (capture), second antibody ruthenylated 5B8 (detection); 2.7 pg/mL MYBPC3
[16] = biological target: T1, recombinant N-terminal fragment …; test: Elecsys ECLIA sandwich; row antibody biotinylated (capture), second antibody ruthenylated 25H1 (detection); 0.9 pg/mL MYBPC3
[17] = biological target: T1, recombinant N-terminal fragment …; test: sandwich ELISA, streptavidin MTP; row antibody biotinylated (capture), second antibody DIG-labelled 4.7.10 (detection); 1 ng/mL MYBPC3
[18] = biological target: T1, recombinant N-terminal fragment …; test: Elecsys ECLIA sandwich; row antibody biotinylated (capture), second antibody ruthenylated 11F2 (detection); 0.9 pg/mL MYBPC3
[19] = biological target: T1, recombinant N-terminal fragment …; test: SPR (Biacore) at 37°C, antibody captured via anti-mouse Fc, MYBPC3 0.4-90 nM, Langmuir 1:1 fit over 2 series
[20] = biological target: T1, recombinant N-terminal fragment …; test: Elecsys ECLIA sandwich; row antibody biotinylated (capture), second antibody ruthenylated 7D5 (detection); 2.7 pg/mL MYBPC3
[21] = biological target: T1, recombinant N-terminal fragment …; test: sandwich ELISA, streptavidin MTP; row antibody biotinylated (capture), second antibody DIG-labelled 4.1.1 (detection); 2.7 pg/mL MYBPC3
[22] = biological target: T1, recombinant N-terminal fragment …; test: Elecsys ECLIA sandwich; row antibody biotinylated (capture), second antibody ruthenylated 4.1.1 (detection); 0.9 pg/mL MYBPC3
[23] = biological target: T1, recombinant N-terminal fragment …; test: Elecsys ECLIA sandwich; row antibody biotinylated (capture), second antibody ruthenylated 4.1.1 (detection); 2.7 pg/mL MYBPC3
[24] = biological target: T1, recombinant N-terminal fragment …; test: sandwich ELISA, streptavidin MTP; row antibody biotinylated (capture), second antibody DIG-labelled 4.7.10 (detection); 2.7 pg/mL MYBPC3
[25] = biological target: T1, recombinant N-terminal fragment …; test: SPR (Biacore) at 37°C, antibody captured via anti-rabbit Fc, MYBPC3 0.4-90 nM, Langmuir 1:1 fit over 2 series

B1: monoclonal antibody 4.1.1 (antibody, V domains shown)
VH: QVQLKESGPGLVAPSQSLSITCTVSGFSLTGYGVNWVRQPPGKGLEWLGMIWGDGSTDYNSVYKSRLSISKDNSKSQVFLKMNSLQTDDTARYYCARRDTGGASMDYWGQGTSVTVSS
VL: DILMTQSPAILSVSPGERVSFSCRASQNIGTNMHWYQQRTNGSPRLLIRFASESFSGIPSRFSGTGSGTDFTLRINSVESEDIADYYCQQSYNWPFTFGAGTKLELK
notes: Mouse hybridoma monoclonal IgG; Biotinylated, DIG-labelled or ruthenylated in the sandwich assays; also called M-4.1.1; M.4.1.1
Ratio (Δ OD 1 ng/mL MYBPC3) / blank [1]: 3.39 | ratio (2.7 pg/mL) /blank [2]: 1.01 | ratio (2.7 pg/mL) /blank [3]: 1 | ratio (0.9 pg/mL) / blank [4]: 0.99 | ratio (2.7 pg/mL) /blank [5]: 1 | ratio (2.7 pg/mL) /blank [6]: 1.32 | Ratio (Δ OD 2.7 pg/mL/blank) [7]: 1.43 | ratio (0.9 pg/mL) / blank [8]: 1.11 | ratio (0.9 pg/mL) / blank [9]: 1.02 | Ratio (Δ OD 2.7 pg/mL/blank) [10]: 0.99 | ratio (2.7 pg/mL) /blank [11]: 1.32 | ratio (0.9 pg/mL) / blank [12]: 1.02 | Ratio (Δ OD 1 ng/mL MYBPC3) / blank [13]: 1.09 | ratio (0.9 pg/mL) / blank [14]: 1.14 | ratio (2.7 pg/mL) /blank [15]: 1 | ratio (0.9 pg/mL) / blank [16]: 1.01 | Ratio (Δ OD 1 ng/mL MYBPC3) / blank [17]: 23.6 | ratio (0.9 pg/mL) / blank [18]: 1.01 | Kd [19]: 0.056 nM | koff [19]: 0.00012 s⁻¹ | kon [19]: 2.1e+06 M⁻¹ s⁻¹ | ratio (2.7 pg/mL) /blank [20]: 1.09

B2: monoclonal antibody 7B5 (antibody, V domains shown)
VH: QEQLEESGGGLVKPGGTLTLTCKVSGFDFSSGYDMCWVRQAPGKGLESIACIGSSSASTWYANWVNGRFTVSRSTSLNTVDLKMTSLTVADTATYFCARESSTEYYYNLWGPGTLVTVSS
VL: DIVMTQTPASVEAAVGGTVTIKCQASQSIGNALAWYQQKPGQPPKLLIYSTSYLPSGVPSRFKGGGSGAEYTLTISDLECADAATYYCQSYYVSTSSSDRSSFGGGTEVVVK
notes: Rabbit B-cell derived monoclonal IgG, expressed recombinantly in HEK293 cells; Biotinylated, DIG-labelled or ruthenylated in the sandwich assays; also called mAB 7B5; MAK<MYPBC3<rK-7B5-IgG(SPA)
Ratio (Δ OD 2.7 pg/mL/blank) [21]: 3.07 | ratio (2.7 pg/mL) /blank [3]: 1.03 | Ratio (Δ OD 2.7 pg/mL/blank) [7]: 0.98 | ratio (0.9 pg/mL) / blank [22]: 1.18 | Ratio (Δ OD 2.7 pg/mL/blank) [10]: 1.01 | ratio (2.7 pg/mL) /blank [11]: 1.02 | ratio (2.7 pg/mL) /blank [23]: 1.4 | Ratio (Δ OD 2.7 pg/mL/blank) [24]: 0.98 | ratio (0.9 pg/mL) / blank [14]: 1.01 | ratio (0.9 pg/mL) / blank [16]: 1.01 | Kd [25]: 0.19 nM | koff [25]: 0.00051 s⁻¹ | kon [25]: 2.7e+06 M⁻¹ s⁻¹
